Laboratory results as given in patent publication US9260500B2, “Peptide and use thereof” (Takeda Pharmaceutical Company Limited, priority 2009, dated 2016).
Non-standard residues stand in square brackets, D forms with d. *: point of attachment. X1 = ((1S)-1-carboxy-2-(4-hydroxyphenyl)ethyl)carbamoyl, O=C(O)[C@H](Cc1ccc(O)cc1)NC(=O)*; X3 = ((1S)-1-Carboxy-2-hydroxyethyl)carbamoyl, O=C(O)[C@H](CO)NC(=O)*; X8 = (2-Hydroxy-1-(hydroxymethyl)ethyl)carbamoyl, O=C(NC(CO)CO)*; X5 = tetrahydro‑2H‑pyran‑4‑yl‑carbamoyl, O=C(NC1CCOCC1)*; carbamoylmethylcarbamoyl = NC(=O)CNC(=O)*; morpholinocarbonyl = O=C(N1CCOCC1)*; tBuAla = CC(C)(C)C[C@H](N)C(=O)O; 4Pal = N[C@@H](Cc1ccncc1)C(=O)O; dHyp = O=C(O)[C@H]1C[C@H](O)CN1; Cha = N[C@@H](CC1CCCCC1)C(=O)O; Iva = CC[C@](C)(N)C(=O)O; Aib = CC(C)(N)C(=O)O; Glycolyl = O=C(CO)*

Experiments:
human Y2 receptor [1] = target: T1, human Y2 receptor (Homo sapiens, UniProt P49146); assay: Receptor Binding Assay (RBA) for Human Y2, [125I]-PYY displacement on hY2R/CHO membrane fraction; conditions: IC50 of test compound/IC50 of PYY(3-36) (PYY(3-36) taken as 1)
T1 construct: expressed in transfected cells; membrane fraction
T1 sequence (P49146 1-381): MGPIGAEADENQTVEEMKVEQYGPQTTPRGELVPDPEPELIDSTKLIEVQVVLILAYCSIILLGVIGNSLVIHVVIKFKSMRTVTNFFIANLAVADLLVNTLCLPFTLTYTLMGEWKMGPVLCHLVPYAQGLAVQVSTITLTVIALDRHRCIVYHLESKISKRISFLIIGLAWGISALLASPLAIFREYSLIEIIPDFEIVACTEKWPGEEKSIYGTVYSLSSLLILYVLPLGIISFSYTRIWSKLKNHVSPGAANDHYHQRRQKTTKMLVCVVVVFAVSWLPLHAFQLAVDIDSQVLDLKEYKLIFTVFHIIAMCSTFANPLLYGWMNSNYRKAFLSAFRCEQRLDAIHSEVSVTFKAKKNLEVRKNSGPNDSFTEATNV
How it was run: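 hY2R stably expressed in CHO/dhfr− cells; membrane fraction prepared from cells disrupted in 10 mM NaHCO3, 5 mM EDTA buffer with protease inhibitors. Binding read as displacement of [125I]-PYY.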

human Y2 receptor [2] = target: T1, human Y2 receptor; assay: Human Y2 Receptor G Protein Binding Assay (GBA), [35S]GTPγS; assay type: biochemical; conditions: EC50 of test compound/EC50 of PYY(3-36) (PYY3-36 taken as 1), hY2R/CHO membrane fraction
How it was run: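 Agonism measured as [35S]GTPγS binding, read by GF/C filtration and scintillation counting after 120 min at room temperature, using human Y2 membranes at 1 μg protein/mL in pH 7.4 Tris/MgCl2/NaCl/GDP buffer. Compound serially diluted 100 μM–1 nM; EC50 normalized to PYY(3-36) (ratio = compound/PYY).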

male C57EL/6J mice = assay: 3-Days Continuous Subcutaneous Administration Test-1 (food intake suppressing activity); assay type: in vivo, mouse; conditions: 0.03 mg/kg/day, subcutaneous Alzet pump, food consumption over 3 days; relative to food intake suppression rate for PYY(3-36) (1 mg/kg/day) taken as 100%
How it was run: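 Male […] mice, 12-13 weeks, received compound at 0.03 mg/kg/day by subcutaneous osmotic pump (50% DMSO vehicle), housed singly with free food access. Food consumed over 3 days measured; suppression expressed relative to PYY(3-36) (1 mg/kg/day) set as 100%.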

| Substance | RBA IC50 Ratio (human Y2 receptor [1]) | GBA EC50 Ratio (human Y2 receptor [2]) | food intake suppression rate (%) (male C57EL/6J mice) |
| --- | --- | --- | --- |
| Ac-[Glu23, D-Hyp24, Iva25, Pya(4)26, Cha27,36, Leu(Me)28, Lys30, Aib31]-PYY(23-36) (Ac-E[dHyp][Iva][4Pal][Cha][tBuAla]NK[Aib]TRQR[Cha]-NH2; SMILES CC[C@](C)(NC(=O)[C@H]1C[C@H](O)CN1C(=O)[C@H](CCC(=O)O)NC(C)=O)C(=O)N[C@@H](Cc1ccncc1)C(=O)N[C@@H](CC1CCCCC1)C(=O)N[C@@H](CC(C)(C)C)C(=O)N[C@@H](CC(N)=O)C(=O)N[C@@H](CCCCN)C(=O)NC(C)(C)C(=O)N[C@H](C(=O)N[C@@H](CCCNC(=N)N)C(=O)N[C@@H](CCC(N)=O)C(=O)N[C@@H](CCCNC(=N)N)C(=O)N[C@@H](CC1CCCCC1)C(N)=O)[C@@H](C)O) [compound No. 351] | 1.2 | 1.9 | 27% |
| Ac-[Glu23, D-Pro24, Iva25, Pya(4)26, Cha27,36, Aib28,31, Lys30]-PYY(23-36) (Ac-E[dP][Iva][4Pal][Cha][Aib]NK[Aib]TRQR[Cha]-NH2; SMILES CC[C@](C)(NC(=O)[C@H]1CCCN1C(=O)[C@H](CCC(=O)O)NC(C)=O)C(=O)N[C@@H](Cc1ccncc1)C(=O)N[C@@H](CC1CCCCC1)C(=O)NC(C)(C)C(=O)N[C@@H](CC(N)=O)C(=O)N[C@@H](CCCCN)C(=O)NC(C)(C)C(=O)N[C@H](C(=O)N[C@@H](CCCNC(=N)N)C(=O)N[C@@H](CCC(N)=O)C(=O)N[C@@H](CCCNC(=N)N)C(=O)N[C@@H](CC1CCCCC1)C(N)=O)[C@@H](C)O) [compound No. 322] | 6.1 | 2.8 | 31% |
| Ac-[Glu23, D-Pro24, Pya(4)26, Cha27,36, Leu(Me)28, Lys30, Aib31]-PYY(23-36) (Ac-E[dP]R[4Pal][Cha][tBuAla]NK[Aib]TRQR[Cha]-NH2; SMILES CC(=O)N[C@@H](CCC(=O)O)C(=O)N1CCC[C@@H]1C(=O)N[C@@H](CCCNC(=N)N)C(=O)N[C@@H](Cc1ccncc1)C(=O)N[C@@H](CC1CCCCC1)C(=O)N[C@@H](CC(C)(C)C)C(=O)N[C@@H](CC(N)=O)C(=O)N[C@@H](CCCCN)C(=O)NC(C)(C)C(=O)N[C@H](C(=O)N[C@@H](CCCNC(=N)N)C(=O)N[C@@H](CCC(N)=O)C(=O)N[C@@H](CCCNC(=N)N)C(=O)N[C@@H](CC1CCCCC1)C(N)=O)[C@@H](C)O) [compound No. 169] | 0.48 | 0.86 | 55% |
| Ac-[Iva24, Pya(4)26, Cha27,36, Aib28,31, Lys30]-PYY(23-36) (Ac-S[Iva]R[4Pal][Cha][Aib]NK[Aib]TRQR[Cha]-NH2; SMILES CC[C@](C)(NC(=O)[C@H](CO)NC(C)=O)C(=O)N[C@@H](CCCNC(=N)N)C(=O)N[C@@H](Cc1ccncc1)C(=O)N[C@@H](CC1CCCCC1)C(=O)NC(C)(C)C(=O)N[C@@H](CC(N)=O)C(=O)N[C@@H](CCCCN)C(=O)NC(C)(C)C(=O)N[C@H](C(=O)N[C@@H](CCCNC(=N)N)C(=O)N[C@@H](CCC(N)=O)C(=O)N[C@@H](CCCNC(=N)N)C(=O)N[C@@H](CC1CCCCC1)C(N)=O)[C@@H](C)O) [compound No. 241] | 0.58 | 0.91 | 16% |
| Carbamoylmethylcarbamoyl-[D-Pro24, Iva25, Pya(4)26, Cha27,36, Aib28,31, Lys30]-PYY(23-36) (carbamoylmethylcarbamoyl-S[dP][Iva][4Pal][Cha][Aib]NK[Aib]TRQR[Cha]-NH2; SMILES CC[C@](C)(NC(=O)[C@H]1CCCN1C(=O)[C@H](CO)NC(=O)NCC(N)=O)C(=O)N[C@@H](Cc1ccncc1)C(=O)N[C@@H](CC1CCCCC1)C(=O)NC(C)(C)C(=O)N[C@@H](CC(N)=O)C(=O)N[C@@H](CCCCN)C(=O)NC(C)(C)C(=O)N[C@H](C(=O)N[C@@H](CCCNC(=N)N)C(=O)N[C@@H](CCC(N)=O)C(=O)N[C@@H](CCCNC(=N)N)C(=O)N[C@@H](CC1CCCCC1)C(N)=O)[C@@H](C)O) [compound No. 331] | 1.7 | 1.7 | 35% |
| Glycoloyl-[D-Hyp24, Iva25,28, Pya(4)26, Cha27,36, Leu(Me)28, Lys30, Aib31]-PYY(23-36) (Glycolyl-S[dHyp][Iva][4Pal][Cha][Iva]NK[Aib]TRQR[Cha]-NH2) [compound No. 338] | 1.9 | 2.1 | 27% |
| Morpholinocarbonyl-[D-Pro24, Pya(4)26, Cha27,36, Aib28,31, Lys30]-PYY(23-36) (morpholinocarbonyl-S[dP]R[4Pal][Cha][Aib]NK[Aib]TRQR[Cha]-NH2; SMILES C[C@@H](O)[C@H](NC(=O)C(C)(C)NC(=O)[C@H](CCCCN)NC(=O)[C@H](CC(N)=O)NC(=O)C(C)(C)NC(=O)[C@H](CC1CCCCC1)NC(=O)[C@H](Cc1ccncc1)NC(=O)[C@H](CCCNC(=N)N)NC(=O)[C@H]1CCCN1C(=O)[C@H](CO)NC(=O)N1CCOCC1)C(=O)N[C@@H](CCCNC(=N)N)C(=O)N[C@@H](CCC(N)=O)C(=O)N[C@@H](CCCNC(=N)N)C(=O)N[C@@H](CC1CCCCC1)C(N)=O) [compound No. 268] | 0.89 | 0.57 | 16% |
| Tetrahydro-2H-pyran-4-yl-carbamoyl-[D-Pro24, Pya(4)26, Cha27,36, Aib28,31, Lys30]-PYY(23-36) (X5-S[dP]R[4Pal][Cha][Aib]NK[Aib]TRQR[Cha]-NH2; ends and bridges not checked) [compound No. 270] | 0.52 | 0.61 | 28% |
| Tetrahydro-2H-pyran-4-yl-carbamoyl-[Glu23, D-Pro24, Pya(4)26, Cha27,36, Aib28,31, Lys30]-PYY(23-36) (X5-E[dP]R[4Pal][Cha][Aib]NK[Aib]TRQR[Cha]-NH2; ends and bridges not checked) [compound No. 282] | 1.1 | 1.6 | 30% |
| [2-Hydroxy-1-(hydroxymethyl)ethyl]carbamoyl-[D-Pro24, Iva25, Pya(4)26, Cha27,36, Aib28,31, Lys30]-PYY(23-36) (X8-S[dP][Iva][4Pal][Cha][Aib]NK[Aib]TRQR[Cha]-NH2; SMILES CC[C@](C)(NC(=O)[C@H]1CCCN1C(=O)[C@H](CO)NC(=O)NC(CO)CO)C(=O)N[C@@H](Cc1ccncc1)C(=O)N[C@@H](CC1CCCCC1)C(=O)NC(C)(C)C(=O)N[C@@H](CC(N)=O)C(=O)N[C@@H](CCCCN)C(=O)NC(C)(C)C(=O)N[C@H](C(=O)N[C@@H](CCCNC(=N)N)C(=O)N[C@@H](CCC(N)=O)C(=O)N[C@@H](CCCNC(=N)N)C(=O)N[C@@H](CC1CCCCC1)C(N)=O)[C@@H](C)O) [compound No. 339] | 1.76 | 2.0 | 51% |
| [(1S)-1-Carboxy-2-(4-hydroxyphenyl)ethyl]carbamoyl-[D-Pro24, Pya(4)26, Cha27,36, Aib28,31, Lys30]-PYY(23-36) (X1-S[dP]R[4Pal][Cha][Aib]NK[Aib]TRQR[Cha]-NH2; SMILES C[C@@H](O)[C@H](NC(=O)C(C)(C)NC(=O)[C@H](CCCCN)NC(=O)[C@H](CC(N)=O)NC(=O)C(C)(C)NC(=O)[C@H](CC1CCCCC1)NC(=O)[C@H](Cc1ccncc1)NC(=O)[C@H](CCCNC(=N)N)NC(=O)[C@H]1CCCN1C(=O)[C@H](CO)NC(=O)N[C@@H](Cc1ccc(O)cc1)C(=O)O)C(=O)N[C@@H](CCCNC(=N)N)C(=O)N[C@@H](CCC(N)=O)C(=O)N[C@@H](CCCNC(=N)N)C(=O)N[C@@H](CC1CCCCC1)C(N)=O) [compound No. 285] | 0.95 | 1.2 | 28% |
| [(1S)-1-Carboxy-2-hydroxyethyl]carbamoyl-[D-Pro24, Iva25, Pya(4)26, Cha27,36, Aib28,31, Lys30]-PYY(23-36) (X3-S[dP][Iva][4Pal][Cha][Aib]NK[Aib]TRQR[Cha]-NH2; SMILES CC[C@](C)(NC(=O)[C@H]1CCCN1C(=O)[C@H](CO)NC(=O)N[C@@H](CO)C(=O)O)C(=O)N[C@@H](Cc1ccncc1)C(=O)N[C@@H](CC1CCCCC1)C(=O)NC(C)(C)C(=O)N[C@@H](CC(N)=O)C(=O)N[C@@H](CCCCN)C(=O)NC(C)(C)C(=O)N[C@H](C(=O)N[C@@H](CCCNC(=N)N)C(=O)N[C@@H](CCC(N)=O)C(=O)N[C@@H](CCCNC(=N)N)C(=O)N[C@@H](CC1CCCCC1)C(N)=O)[C@@H](C)O) [compound No. 332] | 3.5 | 3.0 | 32% |
